Data from patent US20150299305A1.

Assays:
Assay in all cases: SPR, antibody immobilized, monomeric FcγR injected, steady state, pH 7.4; SPR, monomeric FcγR
[1] = target: Human FcγRI (CD64) (human) (UniProt P12314)
[2] = target: Human FcγRIIIa (CD16a) (human) (UniProt P08637)
[3] = target: Human FcγRIIIb (CD16b) (human) (UniProt O75015)
Human FcγRIIIb (CD16b) (human), sequence (O75015 17-200 limits assumed): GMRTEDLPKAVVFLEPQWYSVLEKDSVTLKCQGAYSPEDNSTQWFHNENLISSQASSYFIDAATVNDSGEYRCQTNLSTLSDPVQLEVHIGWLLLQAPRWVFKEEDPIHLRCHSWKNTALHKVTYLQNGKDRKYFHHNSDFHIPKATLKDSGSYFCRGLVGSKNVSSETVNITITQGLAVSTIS

Human FcγRIIIa (CD16a) (human), sequence (P08637 17-208 limits assumed): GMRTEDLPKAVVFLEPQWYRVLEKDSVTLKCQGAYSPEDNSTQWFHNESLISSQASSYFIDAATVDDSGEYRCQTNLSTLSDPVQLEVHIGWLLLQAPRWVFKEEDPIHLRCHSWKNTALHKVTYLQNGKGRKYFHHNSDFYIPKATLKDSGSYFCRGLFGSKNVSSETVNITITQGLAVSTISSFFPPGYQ
Human FcγRI (CD64) (human), sequence (P12314 16-288 limits assumed): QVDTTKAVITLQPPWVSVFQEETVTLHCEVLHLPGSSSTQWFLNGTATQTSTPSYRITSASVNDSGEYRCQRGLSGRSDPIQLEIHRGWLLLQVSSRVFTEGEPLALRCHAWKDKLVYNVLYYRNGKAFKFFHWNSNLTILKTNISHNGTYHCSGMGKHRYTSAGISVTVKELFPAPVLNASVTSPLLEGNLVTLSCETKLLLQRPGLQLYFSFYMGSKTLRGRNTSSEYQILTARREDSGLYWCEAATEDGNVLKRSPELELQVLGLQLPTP

B1: eculizumab (antibody, human IgG2, kappa)
heavy: QVQLVQSGAEVKKPGASVKVSCKASGYIFSNYWIQWVRQAPGQGLEWMGEILPGSGSTEYTENFKDRVTMTRDTSTSTVYMELSSLRSEDTAVYYCARYFFGSSPNWYFDVWGQGTLVTVSSASTKGPSVFPLAPCSRSTSESTAALGCLVKDYFPEPVTVSWNSGALTSGVHTFPAVLQSSGLYSLSSVVTVPSSNFGTQTYTCNVDHKPSNTKVDKTVERKCCVECPPCPAPPVAGPSVFLFPPKPKDTLMISRTPEVTCVVVDVSQEDPEVQFNWYVDGVEVHNAKTKPREEQFNSTYRVVSVLTVLHQDWLNGKEYKCKVSNKGLPSSIEKTISKAKGQPREPQVYTLPPSQEEMTKNQVSLTCLVKGFYPSDIAVEWESNGQPENNYKTTPPVLDSDGSFFLYSRLTVDKSRWQEGNVFSCSVMHEALHNHYTQKSLSLSLGK
light: DIQMTQSPSSLSASVGDRVTITCGASENIYGALNWYQQKPGKAPKLLIYGATNLADGVPSRFSGSGSGTDFTLTISSLQPEDFATYYCQNVLNTPLTFGQGTKVEIKRTVAAPSVFIFPPSDEQLKSGTASVVCLLNNFYPREAKVQWKVDNALQSGNSQESVTEQDSKDSTYSLSSTLTLSKADYEKHKVYACEVTHQGLSSPVTKSFNRGEC
How did the Kd [1] turn out when B1 was run?
The Kd was 3.78 µM.

What about the Kd [2] of the same binder?
The Kd was 6.78 µM.

What about the Kd [3] of the same binder?
Its Kd is 3.49 µM.
